Experimental findings from US20170021001A1 are described below.

This test deals with TCRs of Du51-specific CD8^+CD45RC^low Tregs (CD8^+CD40Ig Tregs) (rat). Briefly: cell-based or functional assay.

The molecule YLRYDSDVGEYRAVTE [peptide Bu31 (…)] gave a CD25 expression at the cell surface of CD8^+CD40Ig Tregs, fold vs. no peptide (6 days coculture with matured syngeneic pDCs) (fold vs. no peptide) of 1.67. In the case of REEYARFDSDVGEYR [peptide 51-18 (…)], the CD25 upregulation on CD8^+CD40Ig Tregs, fold vs. no peptide (fold vs. no peptide) worked out at 2.04. Turning to NREEYARFDSDVGEYR [peptide Du51 (…)], the CD25 expression at the cell surface of CD8^+CD40Ig Tregs, fold vs. no peptide (6 days coculture with matured syngeneic pDCs) (fold vs. no peptide) stood at 2.07.
